Experimental data reported in patent publication US20210054094A1 (Hoffmann-La Roche, published 2021).
Numbering of substitutions follows the chain as printed.

B1: 5E11-TCB (bispecific antibody, human IgG1, kappa, L234A L235A)
light 1: DIVLTQSPALAVSPGQRATISCRASQSVSISGINLMNWYQQKPGQQPKLLIYHASILASGIPTRFSGSGSGTDFTLTIDPVQADDIATYYCQQTRESPLTFGSGTNLEIKRTVAAPSVFIFPPSDRKLKSGTASVVCLLNNFYPREAKVQWKVDNALQSGNSQESVTEQDSKDSTYSLSSTLTLSKADYEKHKVYACEVTHQGLSSPVTKSFNRGEC
light 2: EVQLLESGGGLVQPGGSLRLSCAASGFTFSTYAMNWVRQAPGKGLEWVSRIRSKYNNYATYYADSVKGRFTISRDDSKNTLYLQMNSLRAEDTAVYYCVRHGNFGNSYVSWFAYWGQGTLVTVSSASVAAPSVFIFPPSDEQLKSGTASVVCLLNNFYPREAKVQWKVDNALQSGNSQESVTEQDSKDSTYSLSSTLTLSKADYEKHKVYACEVTHQGLSSPVTKSFNRGEC
heavy 1: ELQLEQSGGGLVQPGGSLTLSCAASGFTFSKYAMAWVRQAPTKGLEWVASISTGGVNTYYRDSVKARFTISRDNAKNTQYLQMDSLRSEDTATYYCATHTGDYFDYWGQGVMVTVSSASTKGPSVFPLAPSSKSTSGGTAALGCLVEDYFPEPVTVSWNSGALTSGVHTFPAVLQSSGLYSLSSVVTVPSSSLGTQTYICNVNHKPSNTKVDEKVEPKSCDKTHTCPPCPAPEAAGGPSVFLFPPKPKDTLMISRTPEVTCVVVDVSHEDPEVKFNWYVDGVEVHNAKTKPREEQYNSTYRVVSVLTVLHQDWLNGKEYKCKVSNKALGAPIEKTISKAKGQPREPQVCTLPPSRDELTKNQVSLSCAVKGFYPSDIAVEWESNGQPENNYKTTPPVLDSDGSFFLVSKLTVDKSRWQQGNVFSCSVMHEALHNHYTQKSLSLSPGK
heavy 2: not shown
B2: ET150-5-TCB (bispecific antibody, human IgG1, lambda, L234A L235A)
light 1: QSVLTQPPSASGTPGQRVTISCSGSRSNVGGNYVFWYQQVPGATPKLLIYRSNQRPSGVPDRFAGSKSGSSASLAISGLRSEDEADYYCATWDDSLSGFVFGTGTKVTVLGQPKAAPSVTLFPPSSKKLQANKATLVCLISDFYPGAVTVAWKADSSPVKAGVETTTPSKQSNNKYAASSYLSLTPEQWKSHRSYSCQVTHEGSTVEKTVAPTECS
light 2: B1 light 2
heavy 1: EVQLVESGGGLVKPGGSLRLSCAASGFTFSDYYMSWIRQAPGKGLEWVSYISSSGSTIYYADSVKGRFTISRDNAKNSLYLQMNSLRAEDTAVYYCARGYGKAYDQWGQGTLVTVSSASTKGPSVFPLAPSSKSTSGGTAALGCLVEDYFPEPVTVSWNSGALTSGVHTFPAVLQSSGLYSLSSVVTVPSSSLGTQTYICNVNHKPSNTKVDEKVEPKSCDKTHTCPPCPAPEAAGGPSVFLFPPKPKDTLMISRTPEVTCVVVDVSHEDPEVKFNWYVDGVEVHNAKTKPREEQYNSTYRVVSVLTVLHQDWLNGKEYKCKVSNKALGAPIEKTISKAKGQPREPQVCTLPPSRDELTKNQVSLSCAVKGFYPSDIAVEWESNGQPENNYKTTPPVLDSDGSFFLVSKLTVDKSRWQQGNVFSCSVMHEALHNHYTQKSLSLSPGK
heavy 2: not shown
B3: 5F11-TCB (bispecific antibody, human IgG1, kappa, L234A L235A)
light 1: DIVMTQAPLSVSVTPGESASISCRSSKSLLHSNGITYVYWYFQKPGKSPQVLIYRMSNLASGVPDRFSGSGSETDFTLKISRVEAEDVGIYHCGQLLENPYTFGAGTELELKRTVAAPSVFIFPPSDRKLKSGTASVVCLLNNFYPREAKVQWKVDNALQSGNSQESVTEQDSKDSTYSLSSTLTLSKADYEKHKVYACEVTHQGLSSPVTKSFNRGEC
light 2: B1 light 2
heavy 1: EVQLVESGGGLVQPGRSLKLSCAASGFSFSNYGMAWVRQAATKGLEWVASISTGGGNTYYRDSVKGRFIVSRDNAKNTQYLQMDSLRSEDTATYYCTRHDRGGLYWGQGVMVTVSSASTKGPSVFPLAPSSKSTSGGTAALGCLVEDYFPEPVTVSWNSGALTSGVHTFPAVLQSSGLYSLSSVVTVPSSSLGTQTYICNVNHKPSNTKVDEKVEPKSCDKTHTCPPCPAPEAAGGPSVFLFPPKPKDTLMISRTPEVTCVVVDVSHEDPEVKFNWYVDGVEVHNAKTKPREEQYNSTYRVVSVLTVLHQDWLNGKEYKCKVSNKALGAPIEKTISKAKGQPREPQVCTLPPSRDELTKNQVSLSCAVKGFYPSDIAVEWESNGQPENNYKTTPPVLDSDGSFFLVSKLTVDKSRWQQGNVFSCSVMHEALHNHYTQKSLSLSPGK
heavy 2: not shown
B4: P1AE5726 (antibody, V domains shown)
VH: ELQLLESGGGLVQPGGSLRLSCAASGFTFSKYAMAWVRQAPGKGLEWVASISTGGVNTYYADSVKGRFTISRDNAKNTLYLQMNSLRAEDTAVYYCATHTGDYFDYWGQGTMVTVSS
VL: DIVMTQSPDSLAVSLGERATINCRASQSVSISGINLMNWYQQKPGQQPKLLIYHASILASGVPDRFSGSGSGTDFTLTISSLQAEDVAVYYCQQTRESPLTFGQGTRLEIK
B5: P1AE5709 (antibody, V domains shown)
VH: B4 VH with L2V, A61R, G66A, A75S
VL: EIVLTQSPGTLSLSPGERATLSCRASQSVSISGINLMNWYQQKPGQQPRLLIYHASILASGIPDRFSGSGSGTDFTLTISRLEPEDFAVYYCQQTRESPLTFGQGTRLEIK
B6: P1AE5730 (antibody, V domains shown)
VH: B4 VH
VL: DIQMTQSPSSLSASVGDRVTITCRASQSVSISGINLMNWYQQKPGKQPKLLIYHASILASGVPSRFSGSGSGTDFTLTISSLQPEDFATYYCQQTRESPLTFGQGTRLEIK
B7: P1AE5712 (antibody, V domains shown)
VH: B4 VH with L2V, A61R, G66A, A75S
VL: B6 VL
B8: P1AE5724 (antibody, V domains shown)
VH: B4 VH with L2V, A75S
VL: B6 VL
B9: P1AE5731 (antibody, V domains shown)
VH: B4 VH
VL: B6 VL with K46Q
B10: P1AE5718 (antibody, V domains shown)
VH: B4 VH with A61R, G66A
VL: B6 VL
B11: P1AE5725 (antibody, V domains shown)
VH: B4 VH with L2V, A75S
VL: B6 VL with K46Q
B12: P1AE5719 (antibody, V domains shown)
VH: B4 VH with A61R, G66A
VL: B6 VL with K46Q
B13: P1AE5727 (antibody, V domains shown)
VH: B4 VH
VL: B4 VL with R24K, A25S
B14: P1AE5723 (antibody, V domains shown)
VH: B4 VH with L2V, A75S
VL: B5 VL with R49K
B15: P1AE5722 (antibody, V domains shown)
VH: B4 VH with L2V, A75S
VL: B5 VL
B16: P1AE5710 (antibody, V domains shown)
VH: B4 VH with L2V, A61R, G66A, A75S
VL: B5 VL with R49K
B17: P1AE5717 (antibody, V domains shown)
VH: B4 VH with A61R, G66A
VL: B5 VL with R49K
B18: P1AE5716 (antibody, V domains shown)
VH: B4 VH with A61R, G66A
VL: B5 VL
B19: P1AE5728 (antibody, V domains shown)
VH: B4 VH
VL: B5 VL
B20: P1AE5729 (antibody, V domains shown)
VH: B4 VH
VL: B5 VL with R49K

target: T1, human GPRC5D (human, UniProt Q9NZD1 1-345); experiment: cell-based or functional assay
T1 sequence (Q9NZD1 whole entry): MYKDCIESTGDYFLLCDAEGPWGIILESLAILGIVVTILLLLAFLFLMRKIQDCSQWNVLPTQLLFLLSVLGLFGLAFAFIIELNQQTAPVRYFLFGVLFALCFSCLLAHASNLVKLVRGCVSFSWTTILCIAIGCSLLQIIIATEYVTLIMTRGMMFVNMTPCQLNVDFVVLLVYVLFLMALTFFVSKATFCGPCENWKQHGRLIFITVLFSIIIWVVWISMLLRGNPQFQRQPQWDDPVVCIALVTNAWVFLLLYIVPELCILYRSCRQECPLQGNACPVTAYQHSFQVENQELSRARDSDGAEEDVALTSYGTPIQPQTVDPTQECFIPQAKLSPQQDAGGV

Binder	EC50 of T cell cytotoxicity (LDH release) on AMO-1 cells [pM]	EC50 of T cell cytotoxicity (LDH release) on L363 cells [pM]	EC50 of T cell cytotoxicity (LDH release) on NCI-H929 cells [pM]	EC50 of T cell cytotoxicity (LDH release) on RPMI-8226 cells [pM]
B1	14	12	7	24
B2	83.5	768	833	797
B3	3	1	1	2

target: T1, human GPRC5D; experiment: cell-based or functional assay; remark: another data set of the same source

Binder	EC50 of in vitro killing, AMO-1 cells [pM]	EC50 of in vitro killing, EJM cells [pM]	EC50 of in vitro killing, L363 cells [pM]	EC50 of in vitro killing, MOLP-2 cells [pM]	EC50 of in vitro killing, NCI-H929 cells [pM]	EC50 of in vitro killing, OPM-2 cells [pM]	EC50 of in vitro killing, RPMI cells [pM]
B1	8	11	17	18	7	2	64
B3	6	3	3	1	4	1	6

target: T1, human GPRC5D; experiment: cell-based or functional assay; remark: another data set of the same source

CAR-J2 EC50 (PGLALA-CAR-J activation, L363 target cells) [ng/mL]	Binder
37.8	B4
59.4	B5
3.5	B6
16.1	B7
3.6	B8
2.3	B9
105	B10
10.9	B11
2.8	B12
6.3	B13
3.7	B14
4.6	B15
3.5	B16
79.9	B17
3.3	B18
5.6	B19
61.3	B20
